Consider 14 sequences from a protein production outcome set (Wang et al. 2014).

The data set can be described thus: label from the status in PepcDB records.
Turning to “MFMEVSLTSLPAHVMNALDAIWEGSIADSLESETLEFKEDPSCAGRGKQHGNPQAALIEKLIDEAVCLANGDAGTGHIVVGIKDKIGGPEAFTGTTFDTEKIAKKIFDGTRPNLRPEVHEVRYQNNRLIVIYIPEALSLYSRSKGQTSKRVGSHCEPLSEEQRRAIAATRAHADYSNGISEFNVDDIAADTIQEVRRLLKTKRAQSGIDTSLPTTTNGLLRELGLIDNYGALKRAGAILLLPAPEGQLSIRHFWRSFPGIDPEVTDYNQPLLIALSSLKRRITENANKEIKRIQFSDGQEIAVSAFPQTAVDEVVTNAIIHRDWRLSRPVVIDQSPQTLKVWSPGSLPVGVTPNRLLTTQSIPRNSRLMSAMRMLGLAEESSRGFDRIWAALLGSGRDIPDVHTEDTFVEVILHSGNPDESFIKALHELSLSFNPDMLHSVNTLIVLWHLWTSPVISLKQARVKTQTSSKEATELMFALESNGLLTQIHNTDEWFLSEKARKTTNYYQSETIPQSSVQTWVEEKLSSGSPISAAEIAESIGMPRPEITEILRNLRRAGKAHIDPSGPQRGSGTRWIKGT”, the protein production entry was “failed”.

For “MKFLVENLNGSSFELEVDYRDTLLVVKQKIERSQHIPVSKQTLIVDGIVILREDLTVEQCQIVPTSDIQLEVSS”, the protein production result is “not failed”.

With “MPVAISLPTSSTSHFFPRRRGHANHRYQRFSGAQSSTEDPYIRKNQTGVIIIGAGLAGLAAANQLTSKRIPFLLLEASDGVGGRVRTDIVDGFFLDRGFQIFITAYPEAKKLLDYEALDLQRFYAGAKVFYGGKFHTVADPLRHFWDSVASLANPIGSVVDKGLIALTRARVLIKSDEEILTAADEVPTIDLLRKIGFSETILDRFFRPFFGGIFFDRDLETTSKLFDFVFRCLALGENTLPAMGIGEISNQLAAKLPAKSVLLNTRVASIEYPNGSGSDPPSVRLQDGSVMKAELGVIIAVEQPEVNKLLDGIRDPVITKPARSTICLYFTAEPNQIPVQDPVLFLNGSNSGIINNMFFATNVARTYAPPGKALVSVSLIGLFEDRTDDDLAAEVLRELSGWFGESPVMSWKHLKTYRIQFAQPNQCPPTDLVKSPRVGSGLYLSGDYMTSATFDGALVSGRRAVEVLLRETGLIK”, the protein production result is reported as “failed”.

As for “MSERAGEKKLDLLITGVGGQGAILASDIIGKAAVISGIPIRAAETHGMAQRGGSVVNHIRLGSDLGSMIPKKGADIMLALEPMEAVRYLDFLKDGGVIIVNTQSIIPVTVTSGLSKYPEVQEILDALSEKYVVKAFNADELAHEAGSRLAMNVAMVGAVSGYLPISKEVLLESVKVLVPKKTIEINIRAFEMGREEVEES”, the protein production entry is reported as “not failed”.

“MKISQLLSLDTIKLNLAASNKNEVIDQLVDVLWDAGKLTDKNLYKEEILKRESLSSTGIGERIAIPHAKTKAVKNASLALGIYKYGVDYDSLDGEPVNIVFMIAAPAGANDEHLETLSRLSVLLMNPDFKNGLLNAKTPEEVISLLDKFEENEESDETQASNEAENNSNKKYILAVTACPTGIAHTYMAADSLNKTAKEMDVHIKVETNGSTGVKNRLTQEDIDKADGIIVAADKQVEMARFNGKKVVIVPVVQAMKRPQELINEALSGSAPVYSHSGDSSNQSSGKTERRGFYKHLMNGVSNMLPFVVGGGILIAISFMFGIHSAEINDPTFNPIAKLLKDIGGGNAFFLMIPVLAGFIGSSIADRPGFAPAMVGGLIAANSGSGFLGGLIAGFLGGYVVVLLKKIFSKLPQSLEGIKPVLLYPLFGILITGALMYLVIVGPVTALNNNIAIWLQNMGTGNLVLLGIVLGGMMAIDMGGPINKAAFTFGIAMIASGNYYPHAAIMAGGMVPPLATALATTFFKNKFTKDERDAGTTNYIMGLTFITEGAIPFAAADPFRVIPACVIGSAIAGGLSMVFKIGLPAPHGGIFVVPVVEGNPLLYLLSILVGSIVAALIIGFLKKPVNEINK”: the protein production result is on record as “failed”.

Take “MNSPKNSLYEEKSGHYYNAVNPNLLKHIKKEWKEVLDIGCSSGALGAAIKENGTRVSGIEAFPEAAEQAKEKLDHVVLGDIETMDMPYEEEQFDCVIFGDVLEHLFDPWAVIEKVKPYIKQNGVILASIPNVSHISVLAPLLAGNWTYTEYGLLDKTHIRFFTFNEMLRMFLKAGYSISKVDRVYVDHKMYEPLIEELYGICKKYRLGSGFMAETVVFQYIIEAEKSQL”: the protein production result is “not failed”.

As to “MIEVIILAIALSMDAFAVSIGLGATKQQSKVAPLGIIVALYFGLFQGIMPIIGYLGGKGVLSWAESYTPWIAFLLLFLIGVKMIFDSFSEGIEEDISKITHRVLLILAIATSIDAMAAGFSLTLLPVNPLIACLIIASVTFIFSWLGVLVGTKGGTWLENKAEFVGGITLIVMAIKIIITS”, the protein production result is on record as “failed”.

Consider “MKLTDRLLKIASLVSDGKKIADIGTDHGYIPVYLLKEGKVPFAVLADVNKGPLDNAHKEVIQNNLLDKVDLRLGSGIEILEIGEVEEVIIAGMGGILISELLEAKKEVAHNVEKLILQPMQAQEELRYYLLNNGYEILEEVLVREDFRIYEIIVA”, for which the protein production result is given as “failed”.

Turning to “MFGYRSNVPKVRLTTDRLVVRLVHDRDAWRLADYYAENRHFLKPWEPVRDESHCYPSGWQARLGMINEFHKQGSAFYFGLFDPDEKEIIGVANFSNVVRGSFHACYLGYSIGQKWQGKGLMFEALSAAIRYMQRTQHIHRIMANYMPHNKRSGDLLARLGFEKEGYAKDYLLIDGQWRDHVLTALTTPDWTPGR”, the protein production entry is listed as “failed”.

As for “MRIQMATKSSKKYKGVYCDNKGKIFYQIDLGIDPVTGKRVQKKARKNQYGKTFETMKEAYDELVRIKYEFANKVHLENYNMTFENYMNTIYLRAYKQKVQSVTYKTALPHHKLFIQYFGSKPLKAITPRDCEAFRLHIIENYSENYAKNLWSRFKACMGYAERLGYISDMPCKALDNPRGKHPETPFWTYAEFQTFIKSFDLHDYEELQRFTAIWLYYMTGVRVSEGLSLCWEDIDFDKKFLKVHTTLEKDENGNWYRKDQTKTPAGERLIELDDITIEVLQVWRKNQFANQDTDFIISRFGDPFCKSTICRIIKRKAQQVGVPVITGKGLRHSHASYLINVLKKDILYVARRMGHADKSTTLNTYSHWFNALDKTVSEEITQNIKSAGLDSILCQNSCQTSN”, the protein production entry is “failed”.

For “PPEAYSLDTAIFVLETRDYRLSDVKEIDSYGDVEMKGKVAVFETEYGPVFLYVYKGEEAKKIWKKLNGRAGFVSIRSVLDLPNMGKFSTVSNGKKIVAWWRKNWLFIVEGKNGVEEFVKHVYRVYEEMKQ”, the protein production entry is on record as “not failed”.

Regarding “ANLISPVCDMGSAVTAPVYAAILAYRDAVTQILGAPADFAQMMADEAISQILDLMRNEGIKNMEDKLNPKALTGTADSMCFGPLADILPASLKVLEKHANENKCECGCSIKP”, the protein production result is reported as “failed”.

Turning to “MKSITQLENKKVLVLGLAKSGEAAARLLAKLGAIVTVNDGKAFEENPSAQSLLEEGIKVVCGGHPLELLDENFELMVKNPGIRYDNPMVARALEKEIPVWTEVELAYLVSEAPIIGITGSNGKTTTTTMIADVLNHGGKSGVLSGNIGFPASEVAQSVTNQDTLVMELSSFQLMGIESFHPHIAVITNLMPTHIDYHGSFEEYVAAKWNIQNEMTSDDFIILNFNQDLAKELATQTNAQVVPFSTVEKVDGAYLENGGLYFKGELLMHADELGVPGSHNVENALATIAVAKLSGVSNQAIKETLSSFGGVKHRLQFVDTIDDVKFYNDSKSTNILATQKALSGFDNSKVILIAGGLDRGNEFDELIPDITGLKKMVILGESAPRVKRAADKAGVTYLDAKDVADATRIAFEQASAGDVVLLSPANASWDMYKNFEVRGDEFITTVERLKG”, the protein production entry was “failed”.

In the case of “MVVKMIEKYVEFIGEHELDAIFKIAEKIKDLSILHVNSTKAGGGVAEILNRMLPLMKELGLNVDWKVIKGDNEFFNVTKSFHNSLQNGTGNIPDEYFKIYDKWQEINLSEIPLDYDIMFIHDPQPAGLIKFKKGNSNKWIWRCHIDISNPYPPVWNFLRKYISKYDSMIISVPSFGRDDIEIPQFVIPPSIDPLSIKNRDMSETTILRILYKFGINLEKPLITQVSRFDYAKDPLGVIQAYKLAKRHVDIQLLYVGSPATDDPEGEKVYSEVVKASEGDKDIHLLMLPPYSDLEINVFQTASTVVMQKSIKEGFGLTVSEAMWKRKPVIGGNTGGIPLQVINGITGFLVNSPQGASHYIIYLIRNEEIRRRLGTNAREHIRRNFLITRELRDYLMTIVYVANRGLASLNSHESISNHLEHHHHHH”, the protein production entry was “failed”.
